B1: Ab4 (antibody, human IgG1, V domains shown)
VH: QVQLVQSGAEVKKTGSSVKVSCKASGYTFTDHAIHWVRQAPGQALEWMGHFSPGNTDIKYNDKFKGRVTLTVDRSMSTAYMELSSLRSEDTAMYYCKTSTFFFDYWGQGTMVTVSS
VL: DIVMTQSPLSLPVTPGEPASISCKSSQSLLNSGDQKNYLTWYLQKPGQSPQLLIYWASTRESGVPDRFSGSGSGTDFTLKISRVEAEDVGVYYCQNDYSYPLTFGGGTKVEIK
notes: Expressed as human IgG1/kappa from pFUSE-CHIg-hG1 and pFUSE2-CLIg-hk vectors; also called 5E5RHA8 / 5E5RKB
B2: Ab5 (antibody, human IgG1, V domains shown)
VH: EVQLVQSGAEVKKPGESLKISCKISGYIFTDHAIHWVRQMPGKGLEWMGHFSPGNTDIKYNDKFKGQVTLSVDRSINTAYLQWSSLKASDTAIYFCKTSTFFFDYWGQGTRVTVSS
VL: B1 VL
notes: Expressed as human IgG1/kappa from pFUSE-CHIg-hG1 and pFUSE2-CLIg-hk vectors; also called 5E5RHB10 / 5E5RKB
B3: Ab6 (antibody, human IgG1, V domains shown)
VH: EVQLVESGAEVKKPGASVEVSCQASGYTFTDHAIHWVRQAPGQGLEWMGHFSPGNTDIKYNDKFKGRVTMTVDRSINTAYMELRRLRSDDTAVYYCKTSTFFFDYWGQGTMVTVSS
VL: B1 VL
notes: Expressed as human IgG1/kappa from pFUSE-CHIg-hG1 and pFUSE2-CLIg-hk vectors; also called 5E5RHC9 / 5E5RKB
B4: Mouse 5E5 (antibody, V domains shown)
VH: QVQLQQSDAELVKPGSSVKISCKASGYTFTDHAIHWVKQKPEQGLEWIGHFSPGNTDIKYNDKFKGKATLTVDRSSSTAYMQLNSLTSEDSAVYFCKTSTFFFDYWGQGTTLTVSS
VL: DIVMTQSPSSLTVTAGEKVTMICKSSQSLLNSGDQKNYLTWYQQKPGQPPKLLIFWASTRESGVPDRFTGSGSGTDFTLTISSVQAEDLAVYYCQNDYSYPLTFGAGTKLELK
notes: V regions were subcloned into pFUSE-CHIg-hG1 (human IgG1) and pFUSE2-CLIg-hk (human kappa) vectors and expressed in HEK293 cells; also called mouse 5E5 antibody; 5E5VH/5E5VK
B5: Ab1 (antibody, V domains shown)
VH: B1 VH
VL: DIVMTQSPDSLAVSLGERATINCKSSQSLLNSGDQKNYLTWYQQKPGQPPKLLIYWASTRESGVPDRFSGSGSGTDFTLTISSLQAEDVAVYYCQNDYSYPLTFGQGTKVEIK
notes: Expressed as human IgG1/kappa from pFUSE-CHIg-hG1 and pFUSE2-CLIg-hk vectors; also called 5E5RHA8 / 5E5RKA
B6: Ab2 (antibody, V domains shown)
VH: B2 VH
VL: B5 VL
notes: Expressed as human IgG1/kappa from pFUSE-CHIg-hG1 and pFUSE2-CLIg-hk vectors; also called 5E5RHB10 / 5E5RKA
B7: Ab3 (antibody, V domains shown)
VH: B3 VH
VL: B5 VL
notes: Expressed as human IgG1/kappa from pFUSE-CHIg-hG1 and pFUSE2-CLIg-hk vectors; also called 5E5RHC9 / 5E5RKA

Molecular target: T1, Tn-MUC1 on ZR-75-1 cells (human, UniProt P15941 24-1255, Tn glycoform (GalNAcα1-O-Ser/Thr) as expressed by the cells)
T1 construct: whole, on cells; also called ZR-75-1 cell line, which expresses Tn-MUC1; Tn-MUC1(+ve) cell line ZR75-1
T1 sequence (P15941 24-1255): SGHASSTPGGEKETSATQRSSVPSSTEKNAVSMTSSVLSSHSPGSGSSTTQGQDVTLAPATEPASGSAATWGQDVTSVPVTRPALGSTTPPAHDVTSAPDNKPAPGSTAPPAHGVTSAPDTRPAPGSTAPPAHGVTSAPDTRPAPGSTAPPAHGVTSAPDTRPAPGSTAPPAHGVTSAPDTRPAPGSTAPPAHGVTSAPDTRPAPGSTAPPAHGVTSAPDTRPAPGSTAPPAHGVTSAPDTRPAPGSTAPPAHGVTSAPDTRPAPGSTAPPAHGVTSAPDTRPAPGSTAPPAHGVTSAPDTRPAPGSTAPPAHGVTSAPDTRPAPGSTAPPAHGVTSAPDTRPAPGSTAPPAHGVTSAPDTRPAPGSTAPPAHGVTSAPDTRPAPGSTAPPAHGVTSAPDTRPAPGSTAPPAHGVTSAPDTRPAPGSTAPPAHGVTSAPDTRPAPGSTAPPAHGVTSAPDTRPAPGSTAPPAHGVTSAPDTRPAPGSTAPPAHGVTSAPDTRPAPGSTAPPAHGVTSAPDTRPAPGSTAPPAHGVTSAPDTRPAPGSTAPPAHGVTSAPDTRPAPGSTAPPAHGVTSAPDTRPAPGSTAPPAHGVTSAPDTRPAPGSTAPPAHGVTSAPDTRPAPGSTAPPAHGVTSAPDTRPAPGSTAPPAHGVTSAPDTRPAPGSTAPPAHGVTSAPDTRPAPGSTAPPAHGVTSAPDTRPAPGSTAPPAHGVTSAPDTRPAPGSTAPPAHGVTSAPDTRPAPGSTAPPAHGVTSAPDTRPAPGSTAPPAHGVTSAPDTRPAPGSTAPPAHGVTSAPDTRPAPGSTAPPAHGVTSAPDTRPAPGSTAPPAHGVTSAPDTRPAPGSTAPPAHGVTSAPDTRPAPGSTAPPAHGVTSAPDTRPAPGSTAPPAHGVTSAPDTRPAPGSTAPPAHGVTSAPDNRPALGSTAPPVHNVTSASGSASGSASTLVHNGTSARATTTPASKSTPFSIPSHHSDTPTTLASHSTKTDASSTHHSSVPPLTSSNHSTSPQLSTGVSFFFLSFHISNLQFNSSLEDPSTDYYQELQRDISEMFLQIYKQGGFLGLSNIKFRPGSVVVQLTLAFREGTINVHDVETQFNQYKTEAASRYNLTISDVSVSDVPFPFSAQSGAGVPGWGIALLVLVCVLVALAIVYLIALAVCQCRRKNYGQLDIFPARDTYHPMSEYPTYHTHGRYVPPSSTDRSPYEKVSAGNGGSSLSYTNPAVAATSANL
Assay: flow cytometry on ZR-75-1 cells (protocol 6)
Protocol: Exponentially growing cells are suspended by incubation with cell dissociation buffer enzyme-free, Hanks-based (Gibco 13150-016) following the manufacturer's instructions. A cell count/viability is done on a dilution of 10 ul cells+Trypan Blue, 10 ul, with a haemocytomer. The suspension is centrifuged and the cell pellet re-suspended in binding buffer at 3×10̂6 per ml. If significant levels of aggregates are present in the cell count, the suspension is filtered to remove aggregates. The cell suspension is dispensed (50 ul/well) in 96 well U-bottom plates and cooled on ice for 10 minutes. Primary antibody (50 ul/well) diluted in binding buffer (typically 1 ug per ml or less) is added to each well and incubated at 4° C. for 1 hour. The microplate is centrifuged 5 min at 300-400 g at 4° C., flicked to remove the supernatant and then the cell pellet re-suspended in 200 uL of wash buffer (PBS, 0.1% sodium azide). Centrifugation and re-suspension are done 4 times in all. After the last centrifugation, cells are re-suspended in 50 uL of binding buffer containing the biotin labelled conjugate 1:250 (kept at −20 C: Biotin-SP-AffiniPure F(ab′)2 Fragment Goat antihuman IgG (H+L); Jackson 109-066-088). Cells are incubated for 1 hour at 4 C, then washed 4 times as before. Cells are resuspended in 50 ul of binding buffer containing Streptavidin, Alexa Fluor® 488 conjugate (Life Technologies s11223) diluted 1:250 and Fixable Viability Dye eFluor@780 (eBioscience 65-0865) diluted 1:2000, The cells are incubated at 4° C. for 1 hour and then washed 3 times, as above. Cells are then re-suspended in PBS if reading immediately or fixed in 100 ul of paraformaldehyde (2% (w/v) in PBS) and analysed with by flow cytometer (Accuri C6), gating on live cells which have a lower Fixable Viability Dye MFI compared to dead cells.
IgG binding potency to Tn-MUC1 was measured as per protocol 4 and binding to the ZR-75-1 cell line, which expresses Tn-MUC1, was measured as per protocol 6.

Row | Binder | EC50 [µg/mL]
1 | B1 | 0.0423
2 | B2 | 0.0184
3 | B3 | 0.0413
4 | B4 | 0.0283
5 | B5 | 0.00986
6 | B6 | 0.0168
7 | B7 | 0.0268
